Assay [1] concerns the target T1, cynomolgous monkey (cyno) IL-17A (cynomolgus monkey, UniProt A0A2K5TTB0 24-155). The assay is described as follows: cell-based or functional assay.
The target in assay [2] is T2, human IL-17A (human, UniProt Q16552 24-155). The assay is described as follows: cell-based or functional assay.
T2 sequence (Q16552 24-155 limits assumed): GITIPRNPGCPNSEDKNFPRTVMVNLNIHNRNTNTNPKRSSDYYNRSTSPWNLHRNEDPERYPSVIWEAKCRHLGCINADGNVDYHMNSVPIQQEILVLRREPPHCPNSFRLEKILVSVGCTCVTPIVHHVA
The target of assay [3] is T3, human IL-17A/F (human, UniProt Q16552 24-155; Q96PD4 31-163). The assay can be described thus: cell-based or functional assay.
T3 sequence (Q16552 24-155 limits assumed, chain 1 of 2): as the sequence (Q16552 24-155 limits assumed) above
T3 sequence (Q96PD4 31-163 limits assumed, chain 2 of 2): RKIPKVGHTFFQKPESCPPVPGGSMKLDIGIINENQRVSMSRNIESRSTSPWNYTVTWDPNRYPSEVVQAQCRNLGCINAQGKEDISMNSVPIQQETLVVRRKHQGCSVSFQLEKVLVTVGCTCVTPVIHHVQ
Assay [4] has as its target T2, human IL-17A. The assay is described as follows: ELISA, captured antibody, serially diluted biotin-IL-17 (Example 1.5.1). A general note: An ELISA detects its analyte on a solid surface through an enzyme-linked reagent.
In assay [5] the target is T4, human IL-17A (human, UniProt Q16552 24-155). The assay can be described thus: cell-based or functional assay. This is another data set of the same source.
T4 sequence (Q16552 24-155): as the sequence (Q16552 24-155 limits assumed) above
The target of assay [6] is T5, cynomolgus monkey IL-17A (cynomolgus monkey, UniProt A0A2K5TTB0 24-155). The assay can be described thus: cell-based or functional assay.
Assay [7] has as its target T6, rat IL-17A (rat, UniProt Q61453 18-150, limits assumed).
T6 sequence (looked up): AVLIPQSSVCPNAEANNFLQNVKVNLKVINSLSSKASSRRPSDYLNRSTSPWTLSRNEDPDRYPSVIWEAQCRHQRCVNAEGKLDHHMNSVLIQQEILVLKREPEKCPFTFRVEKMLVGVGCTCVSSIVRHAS
The assay can be described thus: cell-based or functional assay.

In assay [8] the target is T4, human IL-17A. The assay can be described thus: SPR (Biacore 3000), antibody captured by anti-Fc, antigen in solution.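 Also: purified recombinant IL-17 antigens flowed over captured antibodies in HBS-EP buffer, global Langmuir one-to-one fit of association and dissociation phases, KD derived from koff over kon.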 A general note: In SPR one partner is held on a chip, and binding of the other changes the refractive index at the surface.
Assay [9] deals with T7, human IL-17A/F (human, UniProt Q16552 24-155; Q96PD4 31-163).
T7 construct: Recombinant; biotinylated in the ELISA; also called hIL-17A/F; HuIL-17A/F
Described as above.
T7 sequence (Q16552 24-155, chain 1 of 2): as the sequence (Q16552 24-155 limits assumed) above
T7 sequence (Q96PD4 31-163, chain 2 of 2): as the sequence (Q96PD4 31-163 limits assumed, chain 2 of 2) above

Assay [10] addresses T5, cynomolgus monkey IL-17A. The assay is described as above.
In assay [11] the target is T8, mouse IL-17A (mouse, UniProt Q62386 26-158, limits assumed).
T8 construct: Purified recombinant protein in SPR; also called MuIL-17A; murine IL-17A
T8 sequence (looked up): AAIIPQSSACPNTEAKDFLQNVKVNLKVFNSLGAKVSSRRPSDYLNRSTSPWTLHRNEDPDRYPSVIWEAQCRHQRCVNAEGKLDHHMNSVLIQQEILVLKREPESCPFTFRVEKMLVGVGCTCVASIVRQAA
The assay is described as above.

The target in assay [12] is T6, rat IL-17A. The assay is described as above.
In assay [13] the target is T4, human IL-17A. The assay can be described thus: hIL17A ELISA.
Assay [14] addresses T9, rat IL-17A (rat, UniProt Q61453 18-150, limits assumed).
T9 sequence (looked up): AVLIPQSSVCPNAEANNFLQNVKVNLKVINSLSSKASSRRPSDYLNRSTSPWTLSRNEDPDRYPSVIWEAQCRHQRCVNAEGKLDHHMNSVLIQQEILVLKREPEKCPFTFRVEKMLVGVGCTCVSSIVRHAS
The assay can be described thus: cell-based or functional assay. The source holds these as a separate data set.

In assay [15] the target is T10, mouse IL-17A (mouse, UniProt Q62386 26-158, limits assumed).
T10 sequence (looked up): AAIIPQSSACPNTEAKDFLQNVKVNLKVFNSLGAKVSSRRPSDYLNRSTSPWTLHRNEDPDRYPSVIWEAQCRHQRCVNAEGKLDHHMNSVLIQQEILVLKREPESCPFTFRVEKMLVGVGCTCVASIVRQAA
The assay is described as follows: cell-based or functional assay.

Assay [16] deals with T1, cynomolgous monkey (cyno) IL-17A. The assay is described as follows: cell-based or functional assay. This is another data set of the same source.
For assay [17], the target named is T2, human IL-17A. The assay is described as follows: cell-based or functional assay. This is another data set of the same source.
Assay [18] concerns the target rabbit IL-17A (rabbit). The assay is described as follows: cell-based or functional assay.
In assay [19] the target is T3, human IL-17A/F. The assay can be described thus: cell-based or functional assay. This is another data set of the same source.

Like-named read-outs stand apart in the source and are kept apart here.

T1 sequence (A0A2K5TTB0 entry or part of it): as the sequence (Q16552 24-155 limits assumed) above, with T3A, P8S, N34S, I77V, N78K, P104R counted along it
T5 sequence (A0A2K5TTB0 entry or part of it): as the sequence (Q16552 24-155 limits assumed) above, with T3A, P8S, N34S, I77V, N78K, P104R counted along it

B1: IL17-TN-K7-B6 (antibody, V domains shown)
VH: EVQLVQSGAEVKKPGESLKISCKASGGSFRSYGISWVRQAPGQGLEWMGGITPILGTANYAQKFQGRVTITADESTTTAYMELSGLTSDDTAVYYCAREPNDFWNGYYTTHHFDYWGQGTPVTVSS
VL: DVVMTQSPDFQSVTPKEKVTITCRASQNIGSALHWYQQKPDQSPKLLIKYASQSISGVPSRFSGSGSGTDFTLTINGLEAEDAGTYYCHQSTSLPHTFGQGTKLDIKR
notes: Fully human monoclonal antibody from mRNA display
For orientation: EC50 means the midpoint of the concentration-response curve. As for B1, the figures for the “Potency (nM), IL-17-driven IL-6 production in HS27 cells” value (shortened to “Potency (nM)”) in [1], in assay [2] and in assay [3] were 18 nM, 4.5 nM and 8.1 nM, respectively. For the same molecule, the midpoint of the response in [4], the EC50, lay at 0.447 nM.

B2: IL17-TN-L7-G9 (antibody, V domains shown)
VH: EVQLLESGGGVVQPGRSLRLSCAASGFIFSNYGMHWVRQAPGKGLEWVAVISYDGSNKYYADSVKGRFTISRDNSKNTLYLEMNSLRPEDTAVYYCAKVGASGDYYYSYGLDVWGQGTTVTVSS
VL: QSGLTQPPSASGTPGQTVSISCSGSNSNIGSHSVNWYQQVPGAAPKLLMYGIGQRPSGVPDRFSVSQSGTSASLAISGLQSEDEADYYCATWDDSLGGYVFGSGTKVTVLG
notes: as for B1
In the case of B2, the “Potency (nM)” value in assay [1] came to 12 nM; in assay [2], 0.8 nM; in assay [3], 2 nM. The molecule further yielded an EC50 in assay [4] of 0.165 nM.

B3: IL17-TN-L7-A7 (antibody, V domains shown)
VH: EVQLLESGGGVVQPGTFLRLSCAATGFTFSAYGMHWVRQAPGRGLEWVAVTSYDGSNKYYADSVKGRFTISRDNSKNTLYLEMNSLRPEDTAVYYCAKVGASGDYYYSYGLDVWGQGTMVTVSS
VL: QSGLTQPPSASGTPGQTVSISCSGSNSNIGSHSVNWYQQVPGAAPKLLMYGIGQRPSGVPDRFSVSQSGTSASLAISGLQSEDEADYYCATWDDSLGGYVFGSGTKVTVLG
notes: as for B1
As for B3, the “Potency (nM)” value stood at 12 nM in assay [1], 1.8 nM in assay [2] and 1.8 nM in assay [3]. Also, the concentration giving a half-maximal response (EC50) in assay [4] was found to be 0.131 nM.

B4: IL17-h5C5.9 (antibody, V domains shown)
VH: EVQLVQSGAEVKKPGASVKVSCKASGYTFTDYEFHWVRQAPGQGLEWIGVIHPGNGGTAYNQNFRDRATLTADKSTSTAYMELSSLRSEDTAVYYCTRFLTYEGYFDYWGQGTLVTVSS
VL: DIQMTQSPSSLSASVGDRVTITCKASQSVSIDVGWFQQKPGKSPKLLIYHASNRYTGVPSRFSGSGSGTDFTFTISSLQPEDFATYFCQQDYSSPYTFGQGTKLEIKR
notes: IgG; constant regions not specified; also called h5C5.9 (VH.1b-Vk.1a)
One may read the Kd as the free concentration of one partner at which half of the binding sites on the other are occupied at equilibrium, for simple one-to-one binding. What is called koff is the first-order rate constant of dissociation. One may read the kon as the second-order rate constant of association. B4: the “Potency (pM), IL-17-driven IL-6 production in HS27 cells” value (“Potency (pM) … in HS27 cells” for short) stood at 14 pM in [5] and 19 pM in [6]. Further, the “Potency (pM), IL-17 and TNF-alpha-driven IL-6 production in NIH3T3 cells” value in assay [7] amounted to 5680 pM. Also, the Kd in assay [8] was 0.44 nM; in assay [9], 1.21 nM; in [10], 0.228 nM; in assay [11], 2.09 nM; in [12] it was 8.48 nM. For the same molecule, the dissociation rate constant (koff) in assay [8] was found to be 0.000449 s⁻¹; in assay [9] it was 0.00115 s⁻¹; in [10], 0.000239 s⁻¹; in [11], 0.000582 s⁻¹; in [12], 0.00958 s⁻¹. Moreover, the kon in assay [8] was 1.02e+06 M⁻¹ s⁻¹; in assay [9] it was 950000 M⁻¹ s⁻¹; in assay [10], 1.05e+06 M⁻¹ s⁻¹; in assay [11], 279000 M⁻¹ s⁻¹; in assay [12], 1.13e+06 M⁻¹ s⁻¹. The molecule further showed an EC50 in assay [13] of 0.03 nM.

B5: IL17-h5C5.8 (antibody, V domains shown)
VH: EVQLVQSGAEVKKPGASVKVSCKASGYTFTDYEFHWVRQAPGQGLEWMGVIHPGNGGTAYNQNFRDRVTITADKSTSTAYMELSSLRSEDTAVYYCARFLTYEGYFDYWGQGTLVTVSS
VL: DIQMTQSPSSLSASVGDRVTITCKASQSVSIDVGWFQQKPGKSPKLLIYHASNRYTGVPSRFSGSGSGTDFTFTISSLQPEDFATYFCQQDYSSPYTFGQGTKLEIKR
notes: IgG; constant regions not specified; also called h5C5.8 (VH.1-Vk.1a)
Regarding B5, the entries for the “Potency (pM) … in HS27 cells” value in [5] and in assay [6] were 17 pM and 20 pM, respectively. The “Potency (pM), IL-17 and TNF-alpha-driven IL-6 production in NIH3T3 cells” value in assay [7] came out at 13100 pM. For the same molecule, the dissociation constant (Kd) in [8] worked out at 0.393 nM; in assay [9], 1.28 nM; in assay [10], 0.217 nM; in assay [11] it was 1.86 nM; in assay [12], 14.2 nM. The koff in assay [8] came to 0.000444 s⁻¹; in assay [9] it was 0.00121 s⁻¹; in assay [10], 0.000226 s⁻¹; in assay [11] it was 0.000531 s⁻¹; in [12], 0.011 s⁻¹. Also, the kon in assay [8] came out at 1.13e+06 M⁻¹ s⁻¹; in assay [9], 948000 M⁻¹ s⁻¹; in [10], 1.04e+06 M⁻¹ s⁻¹; in [11], 285000 M⁻¹ s⁻¹; in [12] it was 774000 M⁻¹ s⁻¹. Besides, the EC50 in assay [13] was found to be 0.07 nM.

B6: IL17-TN-L7-C8 (antibody, V domains shown)
VH: EVQLVQSGAEVKKPGASVKVSCKASGYTFSDFDIDWVRQATGLGLEWMGWMNPNSGNTGVAPKFRGRVSMTFNTAIRTAYLELSSLRPDDTAVYFCARSSESEGITIGFDNWGQGTLVTVSS
VL: SYELTQPPSVSVSPGQTASIPCSGDKLGNRYACWYKQKPGQPPVLVIYQDNKRPSGISERYSGSNYGDTATLTITGTQAMDEADYYCQTWDSTTGSYVFGTGTKVTVLG
notes: Fully human monoclonal antibody from mRNA display; also called IL-TN-L7-C8
As for B6, the “Potency (nM)” value worked out at 18 nM in assay [1], 4.5 nM in assay [2] and 2.6 nM in assay [3]. Moreover, in assay [4], the EC50 came out at 0.517 nM.

B7: IL17-B6-5 (antibody, V domains shown)
VH: EVQLVQSGAEVKKPGESVKISCKASGGSFRSYGISWVRQAPGQGLEWMGGITHFFGITDYAQKFQGRVTITADESTTTAYMELSGLTSDDTAVYYCAREPNDFWNGYYDTHDFDSWGQGTTVTVSS
VL: EIVLTQSPDFQSVTPKEKVTITCRASQNIGSELHWYQQKPDQSPKLLIKYASHSISGVPSRFSGSGSGTDFTLTINGLEAEDAATYYCHQSDTLPHTFGQGTKVDIK
notes: also called pJP243 B6.1 #5VH / pJP244 B6.1 #5VK
With B7, in assay [4], the EC50 was 0.22 nM. Further, the entries for the “Potency (pM), IL-17 and TNF-induced IL-6 secretion from NIH3T3 cells” value in [14], in assay [15] and in [18] were 73 pM, 64 pM and 320 pM, respectively. The “Potency (pM) … in HS27 cells” value in assay [16] is 12 pM; in assay [17], 18 pM; in assay [19], 134 pM.

B8: IL17-B6-17 (antibody, V domains shown)
VH: EVQLVQSGAEVKKPGSSVKVSCKASGGSFGGYGIGWVRQAPGQGLEWMGGITPFFGFADYAQKFQGRVTITADESTTTAYMELSGLTSDDTAVYYCARDPNEFWNGYYSTHDFDSWGQGTTVTVSS
VL: EIVLTQSPDFQSVTPKEKVTITCRASQDIGSELHWYQQKPDQPPKLLIKYASHSTSGVPSRFSGSGSGTDFTLTINGLEAEDAGTYYCHQTDSLPYTFGPGTKVDIK
notes: also called pJP249 B6.1 #17VH / pJP252 B6.1 #17Vk
Take B8: the EC50 in assay [4] is 0.13 nM. Besides, the “Potency (pM), IL-17 and TNF-induced IL-6 secretion from NIH3T3 cells” value was found to be 111 pM in assay [14], 69 pM in [15] and 232 pM in assay [18]. The “Potency (pM) … in HS27 cells” value turned out to be 11 pM in assay [16], 15 pM in assay [17] and 137 pM in assay [19].

(Values after patent publication US20140348834A1 (published 2014).)
